{"source": "paper PMC10578488", "about": "(RNA, 2023)", "binders": {"B1": {"name": "Lsm11 lacking residues 211-322 (chain of the Lsm10/11 heterodimer) (natural protein, human, UniProt P83369 1-360, looked up)", "chain": "MEERERGARSAGAGSPARPPSPRLDVSSDSFDPLLALYAPRLPPIPYPNAPCFNNVAEYESFLRTGVRGGGRGRGRARGAAAGSGVPAAPGPSGRTRRRPDAPAPDPERIQRLRRLMVAKEEGDGAAGAGRRGPGRSRKAPRNVLTRMPLHEGSPLGELHRCIREGVKVNVHIRTFKGLRGVCTGFLVAFDKFWNMALTDVDETYRKPVLQSRKKKRKPKVDYQQVFTRHINQIFIRGENVLLVHLAQ", "notes": "Lsm11, human, lacking residues 211-322 (internal loop); The Lsm11 chain of m2, written alone for the pairs Lsm11-PRMT5 and Lsm11-Lsm10; also called Lsm11ΔL; source: High5 insect cells (baculovirus), coexpressed with MBP-Lsm10, purified (nickel beads, HiTrap Heparin)"}, "B2": {"name": "Lsm10-MBP/Lsm11 heterodimer (wild-type, full-length Lsm11) (complex, human)", "chain 1": "MAVSHSVKERTISENSLIILLQGLQGRVTTVDLRDESVAHGRIDNVDAFMNIRLAKVTYTDRWGHQVKLDDLFVTGRNVRYVHIPDDVNITSTIEQQLQIIHRVRNFGGKGQGRWEFPPKNCK", "chain 2": "MEERERGARSAGAGSPARPPSPRLDVSSDSFDPLLALYAPRLPPIPYPNAPCFNNVAEYESFLRTGVRGGGRGRGRARGAAAGSGVPAAPGPSGRTRRRPDAPAPDPERIQRLRRLMVAKEEGDGAAGAGRRGPGRSRKAPRNVLTRMPLHEGSPLGELHRCIREGVKVNVHIRTFKGLRGVCTGFLVAFDKFWNMALTDVDETYRKPVLGKAYERDSSLTLTRLFDRLKLQDSSKKEADSKSAVEDSTLSRYSQTSTWKLASVWGRADTGRGSHKRSRSVPSSLQASAREESRSELSGRTTRTDGSSVGGTFSRATTLSRGQSRKKKRKPKVDYQQVFTRHINQIFIRGENVLLVHLAQ", "notes": "Lsm10, human, full length; Lsm11, human, full length, 360 amino acids; The results call the fusion Lsm10-MBP, the methods say MBP was added to the amino terminus of Lsm10; also called Lsm10/11; 10/11; source: baculovirus-expressed, recombinant; not shown: MBP, N-terminal, kept"}, "B3": {"name": "Lsm10/11ΔL heterodimer (MBP-Lsm10 with Lsm11 lacking the internal loop, amino acids 211-322) (complex, human)", "chain 1": "B2 chain 1", "chain 2": "B1 chain", "notes": "Lsm10, human, full length; Lsm11, human, lacking residues 211-322 (internal loop); Purified on nickel beads; also called Lsm10/11ΔL dimer; Lsm11ΔL; source: High5 insect cells (baculovirus), purified (nickel beads, HiTrap Heparin); not shown: MBP, N-terminal, kept"}, "B4": {"name": "recombinant mouse pICln (natural protein, UniProt Q61189 1-236, looked up)", "chain": "MSFLKSFPPPGSADGLRLQQPDTEAVLNGKGLGTGTLYIAESRLSWLDGSGLGFSLEYPTISLHAVSRDPNAYPQEHLYVMVNAKLGEESKEPPSDEDEEDNDDIEPISEFRFVPSDKSALEAMFTAMCECQALHPDPEDEDSDDYDGEEYDVEAHEQGQGDIPTFYTYEEGLSHLTAEGQATLERLEGMLSQSVSSQYNMAGVRTEDSVRNYEDGMEVETTPTVAGQFEDADVDH", "notes": "pICln, mouse, full length; source: E. coli Rosetta, purified (nickel beads, MonoQ)"}}, "conditions_in_all_cases": "both partners purified", "key": {"[1]": {"target": "T1, recombinant human PRMT5 (chain of the PRMT5/MEP50 complex) (human, UniProt O14744 1-637)", "T1 construct": "PRMT5, human, full length; The PRMT5 chain of m17, written alone for the pairs seen in the cryo-EM structures; source: High5 insect cells (baculovirus), coexpressed with MEP50, purified (nickel beads, Superdex 200)", "T1 sequence (O14744 whole entry, one chain of several)": "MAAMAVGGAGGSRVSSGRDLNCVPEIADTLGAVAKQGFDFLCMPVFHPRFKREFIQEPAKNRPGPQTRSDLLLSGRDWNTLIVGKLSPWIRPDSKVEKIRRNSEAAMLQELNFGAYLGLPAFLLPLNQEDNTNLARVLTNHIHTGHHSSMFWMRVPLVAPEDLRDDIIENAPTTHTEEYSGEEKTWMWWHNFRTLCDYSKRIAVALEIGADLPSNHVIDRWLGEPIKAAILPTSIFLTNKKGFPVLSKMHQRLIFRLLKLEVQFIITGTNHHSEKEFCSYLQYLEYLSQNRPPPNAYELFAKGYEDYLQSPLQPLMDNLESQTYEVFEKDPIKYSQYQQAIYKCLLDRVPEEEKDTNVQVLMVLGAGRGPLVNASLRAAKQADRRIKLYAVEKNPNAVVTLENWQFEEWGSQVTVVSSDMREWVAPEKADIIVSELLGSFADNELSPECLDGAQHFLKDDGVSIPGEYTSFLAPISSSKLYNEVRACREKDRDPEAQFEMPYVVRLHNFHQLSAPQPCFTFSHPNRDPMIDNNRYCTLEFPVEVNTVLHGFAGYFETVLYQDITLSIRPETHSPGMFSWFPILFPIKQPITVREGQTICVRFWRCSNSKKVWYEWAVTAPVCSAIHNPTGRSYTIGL", "assay": "cryo-EM structure; PRMT5/MEP50, Lsm10/11 and pICln mixed 1:1:1.2, complex purified on Superose 6 (25 mM Tris pH 7.5, 150 mM NaCl, 2 mM DTT); map at 2.86 Å, C1 symmetry"}, "[2]": {"target": "T2, recombinant PRMT5/MEP50 complex (human, UniProt O14744 1-637; Q9BQA1 1-342)", "T2 construct": "PRMT5, human, full length; MEP50, human, full length; also called PRMT5/MEP50 heterooctamer; PRMT5/MEP50 heterodimer; source: High5 insect cells (baculovirus), coexpressed, purified (nickel beads, Superdex 200); copies: 4 + 4", "T2 sequence (O14744 whole entry, chain 1 of 2)": "as the sequence (O14744 whole entry, one chain of several) above", "T2 sequence (Q9BQA1 whole entry, chain 2 of 2)": "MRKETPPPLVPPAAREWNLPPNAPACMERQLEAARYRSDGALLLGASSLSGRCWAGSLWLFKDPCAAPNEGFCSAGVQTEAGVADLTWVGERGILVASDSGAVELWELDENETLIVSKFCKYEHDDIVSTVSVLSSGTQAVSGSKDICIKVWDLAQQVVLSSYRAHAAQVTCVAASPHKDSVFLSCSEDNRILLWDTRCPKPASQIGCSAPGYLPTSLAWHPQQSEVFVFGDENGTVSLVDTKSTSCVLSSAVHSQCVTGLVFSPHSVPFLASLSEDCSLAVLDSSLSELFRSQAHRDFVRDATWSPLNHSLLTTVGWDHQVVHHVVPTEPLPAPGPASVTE", "assay": "pull-down; recombinant PRMT5/MEP50 mixed with MBP-Lsm10/11 heterodimer (molar ratio 1:1) without pICln, collected on amylose beads via MBP on Lsm10; silver staining"}, "[3]": {"target": "T2, recombinant PRMT5/MEP50 complex", "assay": "cryo-EM structure; PRMT5/MEP50, Lsm10/11 and pICln mixed 1:1:1.2, complex purified on Superose 6 (25 mM Tris pH 7.5, 150 mM NaCl, 2 mM DTT); map at 2.86 Å, C1 symmetry"}, "[4]": {"target": "B2", "assay": "pull-down; recombinant PRMT5/MEP50 mixed with MBP-Lsm10/11 heterodimer (molar ratio 1:1) in the presence of recombinant pICln, collected on amylose beads via MBP on Lsm10; silver staining"}}}
{"binder": "B1", "values": [{"measurement": "binding result", "setting": "[1]", "result": "binds"}]}
{"binder": "B2", "values": [{"measurement": "binding result", "setting": "[2]", "result": "binds"}]}
{"binder": "B3", "values": [{"measurement": "binding result", "setting": "[3]", "result": "binds"}]}
{"binder": "B4", "values": [{"measurement": "binding result", "setting": "[3]", "result": "binds"}, {"measurement": "binding result", "setting": "[1]", "result": "binds"}, {"measurement": "binding result", "setting": "[4]", "result": "binds"}]}
